B1: full-length ZIKV NS4A protein (1–127) (natural protein)
chain: GAALGVMEALGTLPGHMTERFQEAIDNLAVLMRAETGSRPYKAAAAQLPETLETIMLLGLLGTVSLGIFFVLMRNKGIGKMGFGMVTLGASAWLMWLSEIEPARIACVLIVVFLLLVVLIPEPEKQR
notes: Zika virus NS4A protein, strain MR-766, full length, residues 1-127 of NS4A; numbers count on: the mature NS4A protein (127 residues); Vector pNIC28-Bsa4; a TEV protease cleavage site stands between the His6 tag and the protein; No cleavage is described; also called full-length NS4A; source: E. coli BL21 (DE3) Rosetta T1R, purified (Ni-charged IMAC and SEC in 4 mM n-decyl-β-D-maltoside)

How the values were obtained:
[1] = target: ZIKV NS4A N-terminal peptide (4–58) (Zika virus (strain MR-766)); test: static light scattering; Debye plot of KC/Rθ against protein concentration, Zetasizer Nano-ZS, 25 °C; aqueous solution without detergents or liposomes; n = 5 independent samples per concentration
[2] = target: the molecule itself; test: SEC; Superdex 200 Increase 10/300 GL, 20 mM Tris-HCl, 300 mM NaCl, pH 8, with 4 mM n-decyl-β-D-maltoside

Molecule | stoichiometry N [1] | binding result [2]
ZIKV NS4A N-terminal peptide (4–58) (domain or fragment) | 3 | –
B1 | – | binds
